Experiments:
[1] = target: HLA-A*01:01; test: IEDB peptide-MHC binding, purified MHC/competitive/fluorescence; filed as Kd, often an IC50 or EC50 that approximates it; ≥ and ≤ were set here for values at or beyond the usual limits of such assays
[2] = target: HLA-B*35:01; test: as above
[3] = target: HLA-A*03:01; test: as above; conditions: source organism: Yersinia pestis Nepal516
[4] = target: HLA-A*03:01; test: IEDB peptide-MHC binding, purified MHC/competitive/fluorescence; ≥ and ≤ were set here for values at or beyond the usual limits of such assays
[5] = target: HLA-B*15:01; test: as above
[6] = target: HLA-A*02:01; test: as above
[7] = target: HLA-A*24:02; test: as above
[8] = target: HLA-B*54:01; test: IEDB peptide-MHC binding, purified MHC/competitive/radioactivity; filed as Kd, often an IC50 or EC50 that approximates it; ≥ and ≤ were set here for values at or beyond the usual limits of such assays
[9] = target: HLA-B*51:01; test: as above
[10] = target: HLA-B*53:01; test: as above
[11] = target: HLA-B*35:01; test: as above
[12] = target: HLA-B*07:02; test: as above
[13] = target: HLA-A*24:03; test: IEDB peptide-MHC binding, purified MHC/direct/fluorescence; filed as Kd, often an IC50 or EC50 that approximates it; ≥ and ≤ were set here for values at or beyond the usual limits of such assays; conditions: source organism: Vibrio cholerae
[14] = target: HLA-A*23:01; test: as above; conditions: source organism: Vibrio cholerae
[15] = target: HLA-A*11:01; test: IEDB peptide-MHC binding, purified MHC/competitive/fluorescence; ≥ and ≤ were set here for values at or beyond the usual limits of such assays; conditions: source organism: Zaire ebolavirus
[16] = target: HLA-A*02:12; test: IEDB peptide-MHC binding, purified MHC/direct/fluorescence; filed as Kd, often an IC50 or EC50 that approximates it; ≥ and ≤ were set here for values at or beyond the usual limits of such assays; conditions: source organism: Dengue virus 2 Thailand/16681/84
[17] = target: HLA-A*02:11; test: as above; conditions: source organism: Dengue virus 2 Thailand/16681/84
[18] = target: HLA-C*05:01; test: as above
[19] = target: HLA-B*15:01; test: as above; conditions: source organism: Mycobacterium tuberculosis C
[20] = target: HLA-B*58:01; test: as above; conditions: source organism: Francisella tularensis subsp. holarctica LVS
[21] = target: HLA-B*57:01; test: as above; conditions: source organism: Francisella tularensis subsp. holarctica LVS
[22] = target: HLA-B*15:17; test: as above; conditions: source organism: Francisella tularensis subsp. holarctica LVS
[23] = target: HLA-B*07:02; test: as above; conditions: source organism: Mycobacterium tuberculosis C
[24] = target: HLA-B*51:01; test: IEDB peptide-MHC binding, purified MHC/competitive/fluorescence; filed as Kd, often an IC50 or EC50 that approximates it; ≥ and ≤ were set here for values at or beyond the usual limits of such assays; conditions: source organism: Mycobacterium tuberculosis H37Ra
[25] = source organism: Yersinia pestis Nepal516
[26] = source organism: Sudan ebolavirus
[27] = source organism: Triticum aestivum
[28] = source organism: Vaccinia virus WR
[29] = source organism: Zaire ebolavirus
[30] = source organism: Mycobacterium tuberculosis H37Ra
[31] = source organism: SARS coronavirus Tor2

## MVASQLARY
[1]; [25]
  Kd: 1230 nM
[2]; [25]
  Kd: 0.9 nM
[3]
  Kd: 908 nM

## PKETFLQSP
[4]; [26]
  IC50: ≥ 174000 nM

## QLRGEELSF
[5]; [26]
  IC50: 16800 nM
[6]; [26]
  IC50: ≥ 87000 nM

## QLSNTTGRL
[7]; [26]
  IC50: 30300 nM
[5]; [26]
  IC50: 21800 nM
[6]; [26]
  IC50: 4660 nM

## QPYPQSQPQY
[8]; [27]
  Kd: ≥ 69900 nM
[9]; [27]
  Kd: ≥ 69600 nM
[10]; [27]
  Kd: ≥ 21200 nM
[11]; [27]
  Kd: 323 nM
[12]; [27]
  Kd: ≥ 69600 nM

## RPKILSMINY
[8]; [28]
  Kd: 2920 nM
[9]; [28]
  Kd: 8900 nM
[10]; [28]
  Kd: 1120 nM
[11]; [28]
  Kd: 5740 nM
[12]; [28]
  Kd: 3170 nM

## RYQAQQVEW
[13]
  Kd: 1.6 nM
[14]
  Kd: 4.6 nM

## SFASLFLPK
[7]; [29]
  IC50: ≥ 114000 nM
[15]
  IC50: 81.5 nM
[4]; [29]
  IC50: 677 nM

## SMVNGVVRL
[16]
  Kd: 13 nM
[17]
  Kd: ≤ 1 nM

## TIAGVAGLI
[7]; [29]
  IC50: 2560 nM
[5]; [29]
  IC50: ≥ 165000 nM
[6]; [29]
  IC50: 6060 nM

## TSADQQSLY
[1]; source organism: Influenza A virus (A/swine/Quebec/1192/1986(H1))
  Kd: 21 nM

## TTITGDSAY
[1]; source organism: Salmonella enterica subsp. enterica serovar Typhi
  Kd: 4000 nM

## VDYGLVSKF
[7]; [28]
  IC50: 3510 nM
[5]; [28]
  IC50: ≥ 278000 nM

## VLSDINAVF
[18]; [30]
  Kd: 9 nM
[19]
  Kd: 679 nM

## VPMEKLKAL
[8]; [31]
  Kd: 11700 nM
[9]; [31]
  Kd: 2180 nM
[10]; [31]
  Kd: ≥ 39400 nM
[11]; [31]
  Kd: 6610 nM
[12]; [31]
  Kd: 13.5 nM

## VPNITISSNA
[8]; [28]
  Kd: 16.6 nM
[9]; [28]
  Kd: ≥ 69600 nM
[10]; [28]
  Kd: ≥ 69900 nM
[11]; [28]
  Kd: ≥ 69900 nM
[12]; [28]
  Kd: 4200 nM

## YGIAAHWSY
[20]
  Kd: 47.5 nM
[21]
  Kd: 258 nM
[22]
  Kd: 3.2 nM
[2]; source organism: Francisella tularensis subsp. tularensis FSC198
  Kd: ≤ 0.1 nM

## YKACHNSEL
[18]; source organism: Pisum sativum
  Kd: ≥ 20000 nM

## YPITGVKSL
[23]
  Kd: 73.9 nM
[24]
  Kd: ≥ 20000 nM
[2]; [30]
  Kd: 0.2 nM

Source: the Immune Epitope Database (IEDB)
